Measured values published in article PMC10413271.
“And” between values parts separate entries of the source, which are not always exact repeats. Equal entries are not always repeated.

What was measured:
[1] = target: NiV full-length glycoprotein G (NiV-G) expressed from Ad5-NiVG (Nipah virus, Bangladesh strain (NiV-Bd)); experiment: Western blot (ProteinSimple capillary system)
[2] = target: NiV-soluble external domain glycoprotein G (NiV-Ge) expressed from Ad5-NiVGe (Nipah virus, Bangladesh strain (NiV-Bd)); experiment: Western blot (ProteinSimple capillary system)

| Substance | stoichiometry N [1] | stoichiometry N [2] |
| --- | --- | --- |
| NiV full-length glycoprotein G (NiV-G) expressed from Ad5-NiVG (natural protein) | 2 | – |
| NiV-soluble external domain glycoprotein G (NiV-Ge) expressed from Ad5-NiVGe (domain or fragment) | – | 2 and 4 |
